# Test results reported in the supplement of paper PMC9112550, “Optimization of the antimicrobial peptide Bac7 by deep mutational scanning” (BMC Biology, 2022).
# Tested on: Escherichia coli TOP10
# Assay: shrunken log2 fold change of peptide-encoding DNA abundance (4.5 h post-induction vs induction); higher = less antimicrobial activity (less host growth inhibition)
# Conditions: time post-induction: 4.5 h; library: site-saturation at positions 5, 18, 19, 20
# 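Further: peptides expressed intracellularly from a pBAD plasmid library in pooled LB shake-flask culture, induced with 0.3% L-arabinose, DNA abundance read by NGS, three biological replicates, DESeq2 with apeglm shrinkage.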
row,Sequence,shrunken log2 fold change
1,RRIRDRPPRLPRPRPRPVHAPRP,0.209
2,RRIRCRPPRLPRPRPRPNAVPRP,0.0238
3,RRIRRRPPRLPRPRPRPFEGPRP,0.0216
4,RRIRIRPPRLPRPRPRPDDNPRP,-0.27
5,RRIRIRPPRLPRPRPRPHPKPRP,-0.258
6,RRIRMRPPRLPRPRPRPHEEPRP,0.053
7,RRIRQRPPRLPRPRPRPLKKPRP,-0.15
8,RRIRFRPPRLPRPRPRPRGCPRP,0.433
9,RRIRFRPPRLPRPRPRPHYIPRP,-0.0793
10,RRIRGRPPRLPRPRPRPDVLPRP,0.246
11,RRIRNRPPRLPRPRPRPSQDPRP,-0.102
12,RRIRTRPPRLPRPRPRPDFPPRP,-0.178
13,RRIRRRPPRLPRPRPRPSTWPRP,0.00308
14,RRIRQRPPRLPRPRPRPHAWPRP,0.157
15,RRIRIRPPRLPRPRPRPDITPRP,-0.0982
16,RRIRARPPRLPRPRPRPKKGPRP,0.364
17,RRIRLRPPRLPRPRPRPHEMPRP,-0.377
18,RRIRHRPPRLPRPRPRPKSFPRP,-0.0233
19,RRIRRRPPRLPRPRPRPFPPPRP,0.222
20,RRIRRRPPRLPRPRPRPPWQPRP,2.01
21,RRIRNRPPRLPRPRPRPMAVPRP,-0.0402
22,RRIRQRPPRLPRPRPRPLAYPRP,-0.0738

row,Sequence,shrunken log2 fold change
1,RRIRSRPPRLPRPRPRPQFPPRP,-0.00708
2,RRIRGRPPRLPRPRPRPMLSPRP,0.393
3,RRIRPRPPRLPRPRPRPAQEPRP,0.171
4,RRIRSRPPRLPRPRPRPFNVPRP,-0.343
5,RRIRYRPPRLPRPRPRPLTEPRP,-0.00518
6,RRIRARPPRLPRPRPRPWARPRP,0.0181
7,RRIRIRPPRLPRPRPRPQGLPRP,0.0413
8,RRIRPRPPRLPRPRPRPVHFPRP,-0.342
9,RRIRARPPRLPRPRPRPYNGPRP,-0.0341
10,RRIRCRPPRLPRPRPRPDGMPRP,-0.239
11,RRIRYRPPRLPRPRPRPIVRPRP,-0.0319
12,RRIRCRPPRLPRPRPRPELCPRP,0.488
13,RRIRWRPPRLPRPRPRPLQWPRP,0.346
14,RRIRCRPPRLPRPRPRPDIYPRP,-0.174
15,RRIRKRPPRLPRPRPRPEDLPRP,1.8
16,RRIRVRPPRLPRPRPRPAGGPRP,1.15
17,RRIRPRPPRLPRPRPRPWNTPRP,-0.0902
18,RRIRDRPPRLPRPRPRPGWLPRP,0.127
19,RRIRHRPPRLPRPRPRPCQAPRP,-0.119
20,RRIRMRPPRLPRPRPRPMMPPRP,0.0687
21,RRIRERPPRLPRPRPRPWVIPRP,0.0392
22,RRIRFRPPRLPRPRPRPQQDPRP,-0.24

row,Sequence,shrunken log2 fold change
1,RRIRFRPPRLPRPRPRPGLSPRP,-0.0429
2,RRIRLRPPRLPRPRPRPKANPRP,0.0584
3,RRIRARPPRLPRPRPRPNWHPRP,0.163
4,RRIRFRPPRLPRPRPRPCVEPRP,-0.267
5,RRIRGRPPRLPRPRPRPFPHPRP,0.155
6,RRIRYRPPRLPRPRPRPRYIPRP,-0.397
7,RRIRHRPPRLPRPRPRPIFDPRP,-0.0378
8,RRIRMRPPRLPRPRPRPCLRPRP,-0.0737
9,RRIRPRPPRLPRPRPRPVWIPRP,0.0152
10,RRIRRRPPRLPRPRPRPPSEPRP,0.974
11,RRIRRRPPRLPRPRPRPPGNPRP,0.428
12,RRIRLRPPRLPRPRPRPYMKPRP,-0.804
13,RRIRDRPPRLPRPRPRPMPSPRP,0.026
14,RRIRRRPPRLPRPRPRPLRYPRP,0.463
15,RRIRNRPPRLPRPRPRPCIQPRP,0.00396
16,RRIRHRPPRLPRPRPRPQNEPRP,-0.133
17,RRIRFRPPRLPRPRPRPSNRPRP,-0.381
18,RRIRNRPPRLPRPRPRPFPYPRP,-0.4
19,RRIRGRPPRLPRPRPRPRLMPRP,0.617
20,RRIRVRPPRLPRPRPRPVEVPRP,-0.0382
21,RRIRPRPPRLPRPRPRPGQVPRP,0.11
22,RRIRNRPPRLPRPRPRPFQNPRP,-0.0271

row,Sequence,shrunken log2 fold change
1,RRIRMRPPRLPRPRPRPIIEPRP,-0.0631
2,RRIRSRPPRLPRPRPRPHTTPRP,-0.0736
3,RRIRFRPPRLPRPRPRPDRLPRP,0.147
4,RRIRDRPPRLPRPRPRPMTQPRP,0.0403
5,RRIRWRPPRLPRPRPRPRESPRP,0.846
6,RRIRVRPPRLPRPRPRPALPPRP,0.329
7,RRIRTRPPRLPRPRPRPIAEPRP,0.0307
8,RRIRKRPPRLPRPRPRPYEHPRP,0.049
9,RRIRTRPPRLPRPRPRPKANPRP,-0.00404
10,RRIRYRPPRLPRPRPRPSGAPRP,-0.299
11,RRIRLRPPRLPRPRPRPHVIPRP,0.0211
12,RRIRMRPPRLPRPRPRPALWPRP,0.858
13,RRIRQRPPRLPRPRPRPMRFPRP,0.0202
14,RRIRNRPPRLPRPRPRPFHTPRP,-0.232
15,RRIRERPPRLPRPRPRPKMNPRP,-0.642
16,RRIRSRPPRLPRPRPRPHAVPRP,0.0594
17,RRIRARPPRLPRPRPRPDQHPRP,0.0116
18,RRIRERPPRLPRPRPRPEVSPRP,0.0769
19,RRIRYRPPRLPRPRPRPHMSPRP,-0.452
20,RRIRPRPPRLPRPRPRPSVPPRP,-0.166
21,RRIRLRPPRLPRPRPRPKCPPRP,-0.193
22,RRIRTRPPRLPRPRPRPTRQPRP,0.112

row,Sequence,shrunken log2 fold change
1,RRIRYRPPRLPRPRPRPDARPRP,-0.294
2,RRIRYRPPRLPRPRPRPFSLPRP,-1.22
3,RRIRMRPPRLPRPRPRPTYLPRP,-0.497
4,RRIRERPPRLPRPRPRPEVWPRP,0.4
5,RRIRLRPPRLPRPRPRPNQNPRP,-0.276
6,RRIRARPPRLPRPRPRPMVNPRP,0.309
7,RRIRQRPPRLPRPRPRPERPPRP,0.223
8,RRIRVRPPRLPRPRPRPTYRPRP,-0.594
9,RRIRARPPRLPRPRPRPLMDPRP,0.634
10,RRIRMRPPRLPRPRPRPKKNPRP,1.46
11,RRIRARPPRLPRPRPRPQNRPRP,0.495
12,RRIRPRPPRLPRPRPRPYAEPRP,-0.377
13,RRIRARPPRLPRPRPRPYFRPRP,-0.435
14,RRIRKRPPRLPRPRPRPWALPRP,-0.0102
15,RRIRLRPPRLPRPRPRPWIEPRP,-0.00922
16,RRIRQRPPRLPRPRPRPRLPPRP,0.467
17,RRIRERPPRLPRPRPRPTNRPRP,-0.242
18,RRIRPRPPRLPRPRPRPGISPRP,-0.155
19,RRIRWRPPRLPRPRPRPEWLPRP,0.803
20,RRIRCRPPRLPRPRPRPHMIPRP,-0.0573
21,RRIRNRPPRLPRPRPRPTWQPRP,0.0252
